Data on 3 substances can be found in paper PMC9150345.

Assay [1] has as its target hTBPQ80, hTBP with an extension of 80 glutamine residues (amino acids 50-142), fused to the N-terminal fragment of Venus (human) (UniProt P20226). The assay is described as follows: split reporter (BiFC, NanoBiT); BiFC in HEK293 cells co-transfected with VC- and VN- constructs and pCAG-mCherry; read 48 h after transfection; interaction percent = green cells per 100 red cells.

In assay [2] the target is Antp-hTBP heterodimer (VCAntp-VNTBP, Venus reconstituted by BiFC) (Drosophila | human) (UniProt P02833).
Antp-hTBP heterodimer (VCAntp-VNTBP, Venus reconstituted by BiFC) (Drosophila | human), sequence (P02833 whole entry, chain 1 of 2): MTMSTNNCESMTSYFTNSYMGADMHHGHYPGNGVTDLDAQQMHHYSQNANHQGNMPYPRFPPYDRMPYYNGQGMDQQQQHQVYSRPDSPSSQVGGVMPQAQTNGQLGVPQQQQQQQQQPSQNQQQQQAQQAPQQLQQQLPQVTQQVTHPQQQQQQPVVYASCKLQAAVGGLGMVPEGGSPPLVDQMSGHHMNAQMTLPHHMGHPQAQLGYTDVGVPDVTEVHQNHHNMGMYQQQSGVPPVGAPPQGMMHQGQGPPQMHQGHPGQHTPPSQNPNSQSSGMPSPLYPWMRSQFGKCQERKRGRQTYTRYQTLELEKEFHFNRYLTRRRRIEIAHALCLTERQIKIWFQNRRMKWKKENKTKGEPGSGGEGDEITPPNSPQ
Antp-hTBP heterodimer (VCAntp-VNTBP, Venus reconstituted by BiFC) (Drosophila | human), sequence (P20226 whole entry, chain 2 of 2, further chain): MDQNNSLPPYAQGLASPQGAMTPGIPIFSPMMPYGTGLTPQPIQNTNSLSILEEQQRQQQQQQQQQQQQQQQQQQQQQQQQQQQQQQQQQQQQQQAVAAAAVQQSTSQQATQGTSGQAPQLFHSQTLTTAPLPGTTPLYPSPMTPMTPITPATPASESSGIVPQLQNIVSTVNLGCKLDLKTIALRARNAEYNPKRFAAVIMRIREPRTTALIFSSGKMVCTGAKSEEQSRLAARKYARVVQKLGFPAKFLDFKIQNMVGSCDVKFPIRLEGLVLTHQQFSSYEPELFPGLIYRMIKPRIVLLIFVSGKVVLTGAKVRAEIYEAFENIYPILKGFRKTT

hTBPQ80, hTBP with an extension of 80 glutamine residues (amino acids 50-142), fused to the N-terminal fragment of Venus (human), sequence (P20226 whole entry, the tested form may be a part): as the sequence (P20226 whole entry, chain 2 of 2, further chain) above
AntpΔN, Antp lacking the N-terminal region (amino acids 1-269), fused to the C-terminal fragment of Venus, sequence (P02833 270-378, stated change not applied): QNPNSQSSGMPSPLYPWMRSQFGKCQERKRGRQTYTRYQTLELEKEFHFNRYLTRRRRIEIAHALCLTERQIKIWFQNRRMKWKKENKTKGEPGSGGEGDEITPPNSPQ
Antennapedia (Antp), fused to the C-terminal fragment of Venus, sequence (P02833 whole entry, the tested form may be a part): as the sequence (P02833 whole entry, chain 1 of 2) above

Regarding “Antennapedia (Antp), fused to the C-terminal fragment of Venus (from UniProt P02833 1-378) (natural protein)”, the percent of transfected cells showing BiFC in assay [1] was found to be 78%.

Turning to “Bric-a-brac interacting protein BIP2 (2–89) fused to ECFP (from UniProt Q9XZU7 2-89) (domain or fragment)”, the Antp transactivation on pGLH11 with co-expressed TBP and BIP2, percent of Antp alone (Fig. 5D) in assay [2] is 74%.

The substance “AntpΔN, Antp lacking the N-terminal region (amino acids 1-269), fused to the C-terminal fragment of Venus (from UniProt P02833 270-378) (domain or fragment)” came in with a percent of transfected cells showing BiFC in assay [1] of 47%.
